Tested on: PC-3 cells
Assay: ssDNA apoptosis ELISA (induction of apoptosis in prostate cancer cells)
Type: cell-based
Conditions: 50 μM, optical density of treated divided by untreated cells
Procedure: Cells were assayed for Apoptosis using the ssDNA Apoptosis ELISA kit (Chemicon International Inc.). Cells were seeded in 96-well plates (5000 cells/well) and treated with different concentrations of the inhibitors. At different time point, plates were centrifuges at 200 g for 5 min, medium was removed and the cells were fixed with 80% methanol in PBS for 30 min at room temperature. Plates were dried by floating in a waterbath at 37° C. for 20 minutes. 50 μl of Formamide was added to each well and incubate at room temperature for 10 min. Plates were heated to 75° C. in a circulating waterbath for 10 min, cooled in refrigerator for 5 min, and then formamide was removed. […] Plates were monitored for colour development by ABTS using microplate reader at 405 nm.
DNA in apoptotic cells is sensitive to denaturation by formamide in contrast to necrotic cells. […] The specific denaturation was detected with monoclonal antibody to single stranded DNA. Using ssDNA Apoptosis ELISA kit (Chemicon International, Inc.) chimeric compounds were analyzed for their potential to induce apoptosis in PC-3 cells compared to TRAIL (TNF-related apoptosis-inducing ligand), a known apoptotic agent (R&D Systems, Inc.). Results are presented in values of apoptotic index which is calculated by dividing the optical density of treated and untreated cells.

B1: TRAIL: TNF-related apoptosis-inducing ligand, a known apoptotic agent (R&D Systems, Inc.) (protein, UniProt P50591 1-281, looked up)
Tumor necrosis factor ligand …: MAMMEVQGGPSLGQTCVLIVIFTVLLQSLCVAVTYVYFTNELKQMQDKYSKSGIACFLKEDDSYWDPNDEESMNSPCWQVKWQLRQLVRKMILRTSEETISTVQEKQQNISPLVRERGPQRVAAHITGTRGRSNTLSSPNSKNEKALGRKINSWESSRSGHSFLSNLHLRNGELVIHEKGFYYIYSQTYFRFQEEIKENTKNDKQMVQYIYKYTSYPDPILLMKSARNSCWSKDAEYGLYSIYQGGIFELKENDRIFVSVTNEHLIDMDHEASFFGAFLVG
  Apoptotic index (48 hours): 2.3
